To fix the notation:
B1: Lipase, P19515 (parent)
chain: MVLKQRANYLGFLIVFFTAFLVEAVPIKRQSNSTVDSLPPLIPSRTSAPSSSPSTTDPEAPAMSRNGPLPSDVETKYGMALNATSYPDSVVQAMSIDGGIRAATSQEINELTYYTTLSANSYCRTVIPGATWDCIHCDATEDLKIIKTWSTLIYDTNAMVARGDSEKTIYIVFRGSSSIRNWIADLTFVPVSYPPVSGTKVHKGFLDSYGEVQNELVATVLDQFKQYPSYKVAVTGHSLGGATALLCALDLYQREEGLSSSNLFLYTQGQPRVGDPAFANYVVSTGIPYRRTVNERDIVPHLPPAAFGFLHAGEEYWITDNSPETVQVCTSDLETSDCSNSIVPFTSVLDHLSYFGINTGLCT

This data set covers variants of B1. Particulars: Rhizomucor miehei; pH 8; Thermal; DSF; sodium phosphate buffer 50 mM; structure 6QPR; whole UniProt chain shown.

As a reminder, the Tm is the temperature at which the thermal transition is half complete. Turning to MVLKQRANYLGFLIVFFTAFLVEAVPIKRQSNSTVDSLPPLIPSRTSAPSSSPSTTDPEAPAMSRNGPLPSDVETKYGMALNATSYPDSVVQAMSIDGGIRAATSQEINELTYYTTLSANSYCRTVIPGATWDCIHCDATEDLKIIKTWSTLIYDTNAMVARGDSEKTIYIVFRGSSSIRNWIADLTFVPVSYPPVSGTKVHKGFLDSYGEVQNELVATVLDQFKQYPSYKVAVTGHSLGGATALLCALDLYQREEGLSSSNLFLYTQGQPRVGDPAFANYVVSTGIPYRRTVNERDIVPHLPPAAFGFLHAGEEYWITDNSPETVQVCTSWLETSDCSNSIVPFTSVLDHLSYFGINTGLCT [D332W], the Tm was determined as 58.7 °C and the “change of melting temperature, mutant - wild type (higher = more stable)” value (shortened to “change of melting temperature, mutant”) was -4.5 °C.

Turning to MVLKQRANYLGFLIVFFTAFLVEAVPIKRQSNSTVDSLPPLIPSRTSAPSSSPSTTDPEAPAMSRNGPLPSDVETKYGMALNATSYPDSVVQAMSIDGGIRAATSQEINELTYYTTLSANSYCRTVIPGATWDCIHCDATEDLKIIKTWSTLIYDTNAMVARGDSEKTIYIVFRGSSSIRNWIADLTFVPVSYPPVSGTKVHKGFLDSYGEVQNELVATVLDQFKQYPSYKVAVTGHSLGGATALLCALDLYQREEGLSSSNLFLYTQGQPRVGDPAFANYVVSTGIPYRRTVNERDIVPHLPPAAFGFLHAGEEYWITDNSPETVQVCTSPLETSDCSNSIVPFTSVLDHLSYFGINTGLCT [D332P], the Tm was determined as 58.7 °C and the “change of melting temperature, mutant” value was -3.8 °C.

In the case of MVLKQRANYLGFLIVFFTAFLVEAVPIKRQSNSTVDSLPPLIPSRTSAPSSSPSTTDPEAPAMSRNGPLPSDVETKYGMALNATSYPDSVVQAMSIDGGIRAATSQEINELTYYTTLSANSYCRTVIPGATWDCIHCDATEDLKIIKTWSTLIYDTNAMVARGDSEKTIYIVFRGSSSIRNWIADLTFVPVSYPPVSGTKVHKGFLDSYGEVQNELVATVLDQFKQYPSYKVAVTGHSLGGATALLCALDLYQREEGLSSSNLFLYTQGQPRVGDPAFANYVVSTGIPYRRTVNERDIVPHLPPAAFGFLHAGEEYWITDNSPETVQVCTSYLETSDCSNSIVPFTSVLDHLSYFGINTGLCT [D332Y], the Tm was 58.7 °C and the “change of melting temperature, mutant” value was -5.4 °C.

For MVLKQRANYLGFLIVFFTAFLVEAVPIKRQSNSTVDSLPPLIPSRTSAPSSSPSTTDPEAPAMSRNGPLPSDVETKYGMALNATSYPDSVVQAMSIDGGIRAATSQEINELTYYTTLSANSYCRTVIPGATWDCIHCDATEDLKIIKTWSTLIYDTNAMVARGDSEKTIYIVFRGSSSIRNWIADLTFVPVSYPPVSGTKVHKGFLDSYGEVQNELVATVLDQFKQYPSYKVAVTGHSLGGATALLCALDLYQREEGLSSSNLFLYTQGQPRVGDPAFANYVVSTGIPYRRTVNERDIVPHLPPAAFGFLHAGEEYWITDNSPETVQVCTSRLETSDCSNSIVPFTSVLDHLSYFGINTGLCT [D332R], the Tm was 58 °C and the “change of melting temperature, mutant” value was -2.8 °C.

Consider MVLKQRANYLGFLIVFFTAFLVEAVPIKRQSNSTVDSLPPLIPSRTSAPSSSPSTTDPEAPAMSRNGPLPSDVETKYGMALNATSYPDSVVQAMSIDGGIRAATSQEINELTYYTTLSANSYCRTVIPGATWDCIHCDATEDLKIIKTWSTLIYDTNAMVARGDSEKTIYIVFRGSSSIRNWIADLTFVPVSYPPVSGTKVHKGFLDSYGEVQNELVATVLDQFKQYPSYKVAVTGHSLGGATALLCALDLYQREEGLSSSNLFLYTQGQPRVGDPAFANYVVSTGIPYRRTVNERDIVPHLPPAAFGFLHAGEEYWITDNSPETVQVCTSLLETSDCSNSIVPFTSVLDHLSYFGINTGLCT [D332L], for which the Tm is 57.8 °C and the “change of melting temperature, mutant” value is -2.5 °C.

For the variant MVLKQRANYLGFLIVFFTAFLVEAVPIKRQSNSTVDSLPPLIPSRTSAPSSSPSTTDPEAPAMSRNGPLPSDVETKYGMALNATSYPDSVVQAMSIDGGIRAATSQEINELTYYTTLSANSYCRTVIPGATWDCIHCDATEDLKIIKTWSTLIYDTNAMVARGDSEKTIYIVFRGSSSIRNWIADLTFVPVSYPPVSGTKVHKGFLDSYGEVQNELVATVLDQFKQYPSYKVAVTGHSLGGATALLCALDLYQREEGLSSSNLFLYTQGQPRVGDPAFANYVVSTGIPYRRTVNERDIVPHLPPAAFGFLHAGEEYWITDNSPETVQVCTSFLETSDCSNSIVPFTSVLDHLSYFGINTGLCT [D332F], the Tm is 58.2 °C and the “change of melting temperature, mutant” value was -3 °C.

Take MVLKQRANYLGFLIVFFTAFLVEAVPIKRQSNSTVDSLPPLIPSRTSAPSSSPSTTDPEAPAMSRNGPLPSDVETKYGMALNATSYPDSVVQAMSIDGGIRAATSQEINELTYYTTLSANSYCRTVIPGATWDCIHCDATEDLKIIKTWSTLIYDTNAMVARGDSEKTIYIVFRGSSSIRNWIADLTFVPVSYPPVSGTKVHKGFLDSYGEVQNELVATVLDQFKQYPSYKVAVTGHSLGGATALLCALDLYQREEGLSSSNLFLYTQGQPRVGDPAFANYVVSTGIPYRRTVNERDIVPHLPPAAFGFLHAGEEYWITDNSPETVIVCTSDLETSDCSNSIVPFTSVLDHLSYFGINTGLCT [Q327I]: the Tm was 59.5 °C and the “change of melting temperature, mutant” value came out at 2.3 °C.

Turning to MVLKQRANYLGFLIVFFTAFLVEAVPIKRQSNSTVDSLPPLIPSRTSAPSSSPSTTDPEAPAMSRNGPLPSDVETKYGMALNATSYPDSVVQAMSIDGGIRAATSQEINELTYYTTLSANSYCRTVIPGATWDCIHCDATEDLKIIKTWSTLIYDTNAMVARGDSEKTIYIVFRGSSSIRNWIADLTFVPVSYPPVSGTKVHKGFLDSYGEVQNELVATVLDQFKQYPSYKVAVTGHSLGGATALLCALDLYQREEGLSSSNLFLYTQGQPRVGDPAFANYVVSTGIPYRRTVNERDIVPHLPPAAFGFLHAGEEYWITDNSPETVQVCTSDLETSDCSNSIVPFTSVLDHLSYFGIWTGLCT [N358W], the Tm worked out at 57.2 °C and the “change of melting temperature, mutant” value was -2.7 °C.

On to MVLKQRANYLGFLIVFFTAFLVEAVPIKRQSNSTVDSLPPLIPSRTSAPSSSPSTTDPEAPAMSRNGPLPSDVETKYGMALNATSYPDSVVQAMSIDGGIRAATSQEINELTYYTTLSANSYCRTVIPGATWDCIHCDATEDLKIIKTWSTLIYDTNAMVARGDSEKTIYIVFRGSSSIRNWIADLTFVPVSYPPVSGTKVHKGFLDSYGEVQNELVATVLDQFKQYPSYKVAVTGHSLGGATALLCALDLYQREEGLSSSNLFLYTQGQPRVGDPAFANYVVSTGIPYRRTVNERDIVPHLPPAAFGFLHAGEEYWITDNSPRTVQVCTSDLETSDCSNSIVPFTSVLDHLSYFGINTGLCT [E324R], for which the Tm was determined as 59.9 °C and the “change of melting temperature, mutant” value came out at 1.2 °C.

Turning to MVLKQRANYLGFLIVFFTAFLVEAVPIKRQSNSTVDSLPPLIPSRTSAPSSSPSTTDPEAPAMSRNGPLPSDVETKYGMALNATSYPDSVVQAMSIDGGIRAATSQEINELTYYTTLSANSYCRTVIPGATWDCIHCDATEDLKIIKTWSTLIYDTNAMVARGDSEKTIYIVFRGSSSIRNWIADLTFVPVSYPPVSGTKVHKGFLDSYGEVQNELVATVLDQFKQYPSYKVAVTGHSLGGATALLCALDLYQREEGLSSSNLFLYTQGQPRVGDPAFANYVVSTGIPYRRTVNERDIVPHLPPAAFGFLHAGEEYWITDNSPYTVQVCTSDLETSDCSNSIVPFTSVLDHLSYFGINTGLCT [E324Y], the Tm amounted to 60.8 °C and the “change of melting temperature, mutant” value was 2.1 °C.

For MVLKQRANYLGFLIVFFTAFLVEAVPIKRQSNSTVDSLPPLIPSRTSAPSSSPSTTDPEAPAMSRNGPLPSDVETKYGMALNATSYPDSVVQAMSIDGGIRAATSQEINELTYYTTLSANSYCRTVIPGATWDCIHCDATEDLKIIKTWSTLIYDTNAMVARGDSEKTIYIVFRGSSSIRNWIADLTFVPVSYPPVSGTKVHKGFLDSYGEVQNELVATVLDQFKQYPSYKVAVTGHSLGGATALLCALDLYQREEGLSSSNLFLYTQGQPRVGDPAFANYVVSTGIPYRRTVNERDIVPHLPPAAFGFLHAGEEYWITDNSPVTVQVCTSDLETSDCSNSIVPFTSVLDHLSYFGINTGLCT [E324V], the Tm stood at 64.1 °C and the “change of melting temperature, mutant” value turned out to be 5.4 °C.

Turning to MVLKQRANYLGFLIVFFTAFLVEAVPIKRQSNSTVDSLPPLIPSRTSAPSSSPSTTDPEAPAMSRNGPLPSDVETKYGMALNATSYPDSVVQAMSIDGGIRAATSQEINELTYYTTLSANSYCRTVIPGATWDCIHCDATEDLKIIKTWSTLIYDTNAMVARGDSEKTIYIVFRGSSSIRNWIADLTFVPVSYPPVSGTKVHKGFLDSYGEVQNELVATVLDQFKQYPSYKVAVTGHSLGGATALLCALDLYQREEGLSSSNLFLYTQGQPRVGDPAFANYVVSTGIPYRRTVNERDIVPHLPPAAFGFLHAGEEYWITDNSPPTVQVCTSDLETSDCSNSIVPFTSVLDHLSYFGINTGLCT [E324P], the Tm came out at 61.2 °C and the “change of melting temperature, mutant” value came out at 2.5 °C.

With MVLKQRANYLGFLIVFFTAFLVEAVPIKRQSNSTVDSLPPLIPSRTSAPSSSPSTTDPEAPAMSRNGPLPSDVETKYGMALNATSYPDSVVQAMSIDGGIRAATSQEINELTYYTTLSANSYCRTVIPGATWDCIHCDATEDLKIIKTWSTLIYDTNAMVARGDSEKTIYIVFRGSSSIRNWIADLTFVPVSYPPVSGTKVHKGFLDSYGEVQNELVATVLDQFKQYPSYKVAVTGHSLGGATALLCALDLYQREEGLSSSNLFLYTQGQPRVGDPAFANYVVSTGIPYRRTVNERDIVPHLPPAAFGFLHAGEEYWITDNSPTTVQVCTSDLETSDCSNSIVPFTSVLDHLSYFGINTGLCT [E324T], the Tm came to 62.5 °C and the “change of melting temperature, mutant” value worked out at 3.8 °C.

Take MVLKQRANYLGFLIVFFTAFLVEAVPIKRQSNSTVDSLPPLIPSRTSAPSSSPSTTDPEAPAMSRNGPLPSDVETKYGMALNATSYPDSVVQAMSIDGGIRAATSQEINELTYYTTLSANSYCRTVIPGATWDCIHCDATEDLKIIKTWSTLIYDTNAMVARGDSEKTIYIVFRGSSSIRNWIADLTFVPVSYPPVSGTKVHKGFLDSYGEVQNELVATVLDQFKQYPSYKVAVTGHSLGGATALLCALDLYQREEGLSSSNLFLYTQGQPRVGDPAFANYVVSTGIPYRRTVNERDIVPHLPPAAFGFLHAGEEYWITDNSPWTVQVCTSDLETSDCSNSIVPFTSVLDHLSYFGINTGLCT [E324W]: the Tm turned out to be 61.4 °C and the “change of melting temperature, mutant” value is 2.7 °C.

MVLKQRANYLGFLIVFFTAFLVEAVPIKRQSNSTVDSLPPLIPSRTSAPSSSPSTTDPEAPAMSRNGPLPSDVETKYGMALNATSYPDSVVQAMSIDGGIRAATSQEINELTYYTTLSANSYCRTVIPGATWDCIHCDATEDLKIIKTWSTLIYDTNAMVARGDSEKTIYIVFRGSSSIRNWIADLTFVPVSYPPVSGTKVHKGFLDSYGEVQNELVATVLDQFKQYPSYKVAVTGHSLGGATALLCALDLYQREEGLSSSNLFLYTQGQPRVGDPAFANYVVSTGIPYRRTVNERDIVPHLPPAAFGFLHAGEEYWITDNSPMTVQVCTSDLETSDCSNSIVPFTSVLDHLSYFGINTGLCT [E324M]: the Tm amounted to 60 °C and the “change of melting temperature, mutant” value amounted to 1.3 °C.

These data come from FireProtDB (doi:10.1128/aem.02129-17).
